Molecular target: T1, SARS-CoV-2 nsp12 (RNA-dependent RNA polymerase with N-terminal NiRAN domain) (SARS-CoV-2, UniProt P0DTD1)
T1 construct: also called RdRp; WT nsp12
Assay: cryo-EM structure
Conditions: both partners purified

B1: SARS-CoV-2 nsp9 with native N-terminus (natural protein)
chain: NNELSPVALRQMSCAAGTTQTACTDDNALAYYNTTKGGRFVLALLSDLQDLKWARFPKSDGTGTIYTELEPPCRFVTDTPKGPKVKYLYFIKGLNNLNRGMVLGSLAATVRLQ
notes: also called native nsp9
binding result: binds
